Literature values in paper PMC8441013.

Target: neuromedin B (Homo sapiens) (UniProt P08949)
Chain of UniProt P08949 (P08949 whole entry, looked up): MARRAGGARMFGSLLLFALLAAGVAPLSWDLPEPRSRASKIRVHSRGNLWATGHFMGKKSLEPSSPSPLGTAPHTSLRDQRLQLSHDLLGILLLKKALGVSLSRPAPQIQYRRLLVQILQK

Kd: 5 nM
Substance: NMBR (from UniProt P28336)
